Test results: paper PMC6208778, “eIF2A, an initiator tRNA carrier refractory to eIF2α kinases, functions synergistically with eIF5B” (Cellular and Molecular Life Sciences: CMLS, 2018)
Each block holds one binder with its values, some of them ahead of it.

Assays:
[1] = biological target: T1, His-tagged eIF5B (587–1220) (UniProt O60841 587-1220); assay: co-IP; purified His-tagged eIF5B (587–1220) and GST-fused eIF2A (462–501) mixed; the former precipitated with an anti-His-conjugated resin; western blotting with anti-GST; settings: both partners purified
T1 construct: eIF5B, residues 587–1220; The methods describe only the GST-fused eIF5B; also called purified eIF5B; source: purified
T1 sequence (looked up): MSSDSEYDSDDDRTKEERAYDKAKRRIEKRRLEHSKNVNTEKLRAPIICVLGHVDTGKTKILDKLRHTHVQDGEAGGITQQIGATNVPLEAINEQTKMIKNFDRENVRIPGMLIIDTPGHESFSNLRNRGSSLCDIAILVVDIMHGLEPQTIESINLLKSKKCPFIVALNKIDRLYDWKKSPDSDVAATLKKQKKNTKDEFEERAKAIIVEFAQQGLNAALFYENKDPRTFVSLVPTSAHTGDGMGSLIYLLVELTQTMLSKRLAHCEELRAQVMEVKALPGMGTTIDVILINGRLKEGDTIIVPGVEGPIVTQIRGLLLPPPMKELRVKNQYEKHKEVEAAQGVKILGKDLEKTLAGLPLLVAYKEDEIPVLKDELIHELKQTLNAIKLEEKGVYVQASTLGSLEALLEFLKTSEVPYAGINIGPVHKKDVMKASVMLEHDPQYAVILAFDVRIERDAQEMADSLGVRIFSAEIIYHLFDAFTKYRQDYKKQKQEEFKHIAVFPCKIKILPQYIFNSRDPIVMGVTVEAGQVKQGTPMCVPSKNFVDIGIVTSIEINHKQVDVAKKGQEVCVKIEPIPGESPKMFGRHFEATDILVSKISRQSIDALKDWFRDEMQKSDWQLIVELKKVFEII

[2] = biological target: T2, GST-fused ΔeIF5B(587–1220) (UniProt O60841 587-1220); assay: pull-down; GST pull-down with recombinant proteins purified from E. coli extracts; GST fusions as bait, His–eIF2A detected by western blotting with anti-His; settings: both partners purified
T2 construct: eukaryotic initiation factor 5B (eIF5B), residues 587–1220, lacking the N-terminal region; also called GST–eIF5B; GST–eIF5B (587–1220); source: E. coli BL21, purified
T2 sequence (looked up): T1 sequence (looked up)

- binding result [1]: binds
B1: GST–eIF2A (462–501) (domain or fragment, human, UniProt Q9BY44 462-501, looked up)
chain: HEEEPPQNMKPQSGNDKPLSKTALKNQRKHEAKKAAKQEA
notes: also called M domain; source: E. coli BL21, purified

- binding result [2]: binds
B2: His-tagged eIF2A (natural protein, human, UniProt Q9BY44 1-585, looked up)
chain: MAPSTPLLTVRGSEGLYMVNGPPHFTESTVFPRESGKNCKVCIFSKDGTLFAWGNGEKVNIISVTNKGLLHSFDLLKAVCLEFSPKNTVLATWQPYTTSKDGTAGIPNLQLYDVKTGTCLKSFIQKKMQNWCPSWSEDETLCARNVNNEVHFFENNNFNTIANKLHLQKINDFVLSPGPQPYKVAVYVPGSKGAPSFVRLYQYPNFAGPHAALANKSFFKADKVTMLWNKKATAVLVIASTDVDKTGASYYGEQTLHYIATNGESAVVQLPKNGPIYDVVWNSSSTEFCAVYGFMPAKATIFNLKCDPVFDFGTGPRNAAYYSPHGHILVLAGFGNLRGQMEVWDVKNYKLISKPVASDSTYFAWCPDGEHILTATCAPRLRVNNGYKIWHYTGSILHKYDVPSNAELWQVSWQPFLDGIFPAKTITYQAVPSEVPNEEPKVATAYRPPALRNKPITNSKLHEEEPPQNMKPQSGNDKPLSKTALKNQRKHEAKKAAKQEARSDKSPDLAPTPAPQSTPRNTVSQSISGDPEIDKKIKNLKKKLKAIEQLKEQAATGKQLEKNQLEKIQKETALLQELEDLELGI
notes: eukaryotic initiation factor 2A (eIF2A); also called His–eIF2A; eukaryotic initiation factor 2A; source: E. coli M15 (plasmid pQE31/His–eIF2A), purified
